Experimental data from publication doi:10.1101/225821 (bioRxiv, 2017).

B1: SALM3 LRR-Ig-Fn_(17-510) (domain or fragment, mouse, UniProt Q80XU8 17-510, looked up)
chain: CPLPCVCQNLSESLSTLCAHRGLLFVPPNVDRRTVELRLADNFIQALGPPDFRNMTGLVDLTLSRNAITRIGARSFGDLESLRSLHLDGNRLVELGSSSLRGPVNLQHLILSGNQLGRIAPGAFDDFLDSLEDLDVSYNNLRQVPWAGIGSMPALHTLNLDHNLIDALPPGVFAQLSQLSRLDLTSNRLATLAPDPLFSRGRDAEASPSPLVLSFSGNPLHCNCELLWLRRLARPDDLETCASPPTLAGRYFWAVPEGEFSCEPPLIARHTQRLWVLEGQRATLRCRALGDPVPTMHWVGPDDRLVGNSSRAWAFPNGTLEIGVTGAGDAGAYTCIATNPAGEATARVELRVLALPHGGNTSAEGGRPGPSDIAASARTAAEGEGTLESEPAVQVTEVTATSGLVSWGLGRPADPVWMFQIQYNSSEDETLIYRIVPASSHHFLLKHLVPGADYDLCLLALSPAAGPSDLTATRLLGCAHFSTLPATPLCHALQ
B2: SALM5 LRR-Ig_(18-376) (domain or fragment, mouse, UniProt Q8BXA0 18-376, looked up)
chain: QICPKRCVCQILSPNLATLCAKKGLLFVPPNIDRRTVELRLADNFVTNIKRKDFANMTSLVDLTLSRNTISFITPHAFADLRNLRALHLNSNRLTKITNDMFSGLSNLHHLILNNNQLTLISSTAFDDVFALEELDLSYNNLETIPWDAVEKMVSLHTLSLDHNMIDNIPKGTFSHLHKMTRLDVTSNKLQKLPPDPLFQRAQVLATSGIISPSTFALSFGGNPLHCNCELLWLRRLSREDDLETCASPALLTGRYFWSIPEEEFLCEPPLITRHTHEMRVLEGQRATLRCKARGDPEPAIHWISPEGKLISNATRSLVYDNGTLDILITTVKDTGAFTCIASNPAGEATQTVDLHIIK
B3: SALM3 LRR-Ig_(17-367) (domain or fragment, mouse, UniProt Q80XU8 17-367, looked up)
chain: CPLPCVCQNLSESLSTLCAHRGLLFVPPNVDRRTVELRLADNFIQALGPPDFRNMTGLVDLTLSRNAITRIGARSFGDLESLRSLHLDGNRLVELGSSSLRGPVNLQHLILSGNQLGRIAPGAFDDFLDSLEDLDVSYNNLRQVPWAGIGSMPALHTLNLDHNLIDALPPGVFAQLSQLSRLDLTSNRLATLAPDPLFSRGRDAEASPSPLVLSFSGNPLHCNCELLWLRRLARPDDLETCASPPTLAGRYFWAVPEGEFSCEPPLIARHTQRLWVLEGQRATLRCRALGDPVPTMHWVGPDDRLVGNSSRAWAFPNGTLEIGVTGAGDAGAYTCIATNPAGEATARVELR
B4: SALM1 LRR-Ig-Fn_(20-518) (domain or fragment, mouse, UniProt Q80TG9 20-518, looked up)
chain: ACPKYCVCQNLSESLGTLCPSKGLLFVPPDIDRRTVELRLGGNFIIHIGRQDFANMTGLVDLTLSRNTISHIQPFSFLDLESLRSLHLDSNRLPSLGEDTLRGLVNLQHLIVNNNQLGGIADDAFEDFLLTLEDLDLSYNNLHGLPWDSVRRMVNLHQLSLDHNLLDHIAEGTFADLQKLARLDLTSNRLQKLPPDPIFARSQASLLTATPFAPPLSFSFGGNPLHCNCELLWLRRLERDDDLETCGSPGSLKGRYFWHIREEEFVCEPPLITQHTHKLLVLEGQAATLKCKAIGDPSPLIHWVAPDDRLVGNSSRTAVYDNGTLDILITTSQDSGPFTCIAANAAGEATATVEVSIVQLPHLSNSTSRMAPPKSRLSDITGSSKTSRGGGGSGAGEPPKSTPERAVLVSDVTTTSALVKWSVSKSAPRVKMYQLQYNCSDDEVLIYRMIPASNKAFVVNNLVSGTGYDLCVLAMWDDTATTLTATNIVGCAQFFTKAD

Assays:
[1] = target: Fc-tagged SALM3 LRR-Ig-Fn (mouse) (UniProt Q80XU8); assay: SPR
SEC-MALS = target: the molecule itself; assay: SEC-MALS
[2] = target: RPTPσ Ig1-3meB_(33-331) (mouse) (UniProt B0V2N1); assay: SEC-MALS

Molecule | fold lower affinity than for RPTPσ-meB [1] | stoichiometry N (SEC-MALS) | stoichiometry N (SALM3 per RPTPσ (2:1)) [2]
PTPσ Ig1-3_(33-327) (from UniProt B0V2N1 33-327) (domain or fragment) | 10 fold | – | –
B1 | – | 2 | –
B2 | – | 2 | –
B3 | – | 2 | 2
B4 | – | 2 | –
